Experimental data published in patent US20250243243A1 (HONG KONG UNIVERSITY OF SCIENCE AND TECHNOLOGY, published 2025).
Values belong to the binder of their own block, whether it stands above or below them. Where no end group is shown, it is not given here.

What was measured:
[1] = target: T1, ShhN^1-198-HA (mouse, UniProt Q62226 25-198); experiment: quantification of the co-immunoprecipitation (n=3)
T1 construct: also called ShhN-HA; not shown: C-terminal 3xHA tag
Text: FIG. 3D. […] FIG. 3E. […] FIG. 3F. […] FIG. 3G. […] FIG. 3O.

[2] = target: T2, CW peptides (KRRHPKKC) (C-terminal cysteine added for coupling to thiopyridone-Sepharose 6B beads (pull-down)); experiment: ITC, 500 µM CW peptide injected into 50 µM GST-SURF4 (49-60), one set of sites model
T2 construct: CW motif of Shh (mouse residues 33-39, human 32-38) plus an added C-terminal Cys; On beads in the pull-downs, free in solution in ITC; also called Cardin-Weintraub peptide; synthetic CW peptides
T2 peptide: KRRHPKKC
Protocol: We utilized a commercial isothermal titration calorimeter (PEAQ-ITC system, MicroCal, Malvern Panalytical, United Kingdom) to perform titration experiments. […] During each ITC experiment, 19 injections of CW peptide into the calorimetric cell were carried out while duration of each injection was 4 s and the time between the injections was 150 s. The volume of each injection was 2 μL and the stirring speed was maintained at 750 rpm. Control experiments such as peptide to buffer and buffer to protein titrations were also done to account for non-specific interactions and heat of dilution. The binding constant (Kd) was derived by fitting the data with one set of site model using the MicroCal PEAQ-ITC analysis software.

[3] = target: T3, GST (UniProt P08515 1-218 = GST); experiment: pull-down on beads carrying peptides of the predicted first luminal loop of SURF4, purified prey, anti-GST immunoblot
T3 construct: Control protein purified from E. coli; also called GST alone; purified GST
T3 sequence (P08515 whole entry): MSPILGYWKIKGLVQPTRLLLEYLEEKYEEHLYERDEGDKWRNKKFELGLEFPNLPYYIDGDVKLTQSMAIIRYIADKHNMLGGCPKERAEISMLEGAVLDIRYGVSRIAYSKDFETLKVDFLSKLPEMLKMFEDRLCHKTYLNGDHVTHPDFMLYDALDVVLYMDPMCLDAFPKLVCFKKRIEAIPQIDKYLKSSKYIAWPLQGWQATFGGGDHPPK

T1 sequence (Q62226 25-198): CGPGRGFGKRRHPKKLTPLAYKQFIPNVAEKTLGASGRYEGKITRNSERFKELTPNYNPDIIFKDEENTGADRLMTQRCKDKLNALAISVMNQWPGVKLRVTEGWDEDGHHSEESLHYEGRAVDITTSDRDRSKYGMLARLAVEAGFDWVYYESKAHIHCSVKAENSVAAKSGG

- binding result [1]: binds
B1: SURF4^ED-AA-Myc (receptor)
chain: GQNDLMGTAEDFADQFLRVTKQYLPHVARLCLISTFLEDGIRMWFQWSAQRAYIATTWNCGYLLASSFVFLNLLGQLTGCVLVLSRNFVQYACFGLFGIIALQTIAYSILWDLKFLMRNLALGGGLLLLLAESRSEGKSMFAGVPTMRESSPKQYMQLGGRVLLVLMFMTLLHFDASFFSIVQNIVGTALMILVAIGFKTKLAALTLVVWLFAINVYFNAFWTIPVYKPMHDFLKYDFFQTMSVIGGLLLVVALGPGGVSMDEKKKEW
notes: SURF4-3xMyc with E50, D53 and D56 changed to alanine; also called Myc-tagged SURF4^ED-AA; not shown: C-terminal 3xMyc tag

- Kd [2]: 2350 nM
B2: GST-SURF4^49-60 (other)
chain: {GST}-SEQRDYIDTTWN
modifications: also: GST tag linker not given here
notes: Purified from E. coli; also called N-terminal GST-tagged SURF4^49-60; GST-tagged SURF4^49-60; not shown: glutathione S-transferase (GST) tag, N-terminal

- binding result [3]: no binding
B3: SURF4 luminal peptides (SEQRDYIDTTWNC) (peptide)
peptide: SEQRDYIDTTWNC
modifications: not fully specified (residue 13)
notes: Immobilised on beads as bait; also called SURF4^49-61 peptides; SURF4 peptide
